In patent US20260209368A1 (PROMETHEUS BIOSCIENCES, published 2026):
Where a chain is given by its changes, count along the chain named.

T1: recombinant human TL1A protein (human, UniProt O95150 72-251)
T1 sequence (looked up): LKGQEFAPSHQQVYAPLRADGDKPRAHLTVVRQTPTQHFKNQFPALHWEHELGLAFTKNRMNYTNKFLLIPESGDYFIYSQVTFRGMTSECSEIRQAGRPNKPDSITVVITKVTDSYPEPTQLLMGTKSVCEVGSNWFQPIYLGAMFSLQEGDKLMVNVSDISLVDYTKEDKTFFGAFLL

T2: recombinant cynomolgus monkey TL1A protein (cynomolgus monkey, UniProt G7PRK8 72-251)
T2 sequence: T1 sequence (looked up) with F39L, I78V

T3: TL1A in human blood (human, UniProt O95150 72-251, limits assumed)
T3 sequence (looked up): T1 sequence (looked up)

B1: anti-TL1A antibody A219 (antibody, V domains shown)
VH: QVQLVQSGAEVKKPGASVKVSCKASGFDIQDTYMHWVKQRPGQGLEWMGRIDPASGHTKYDPKFQVRVTITRDTSTSTVYLELSSLRSEDTAVYYCARSGGLPDVWGQGTTVTVSS
VL: EIVLTQSPGTLSLSPGERATLSCRASSSVSYMYWYQQKPGQAPRPLIYATSNLASGIPDRFSGSGSGTDFTLTISRLEPEDFAVYYCQQWEGNPRTFGGGTKLEIK
notes: Humanized monoclonal IgG1 with a kappa light chain, designed to abolish effector functions
B2: A147 (antibody, V domains shown)
VH: B1 VH with D52E, T58I, V66G, I70M, L81M, V105W
VL: B1 VL
B3: A212 (antibody, V domains shown)
VH: B1 VH with K38R, M48I, V68A, R72T, V79A
VL: B1 VL
B4: A220 (antibody, V domains shown)
VH: B1 VH with I70M, V79A
VL: B1 VL with L46W
B5: A213 (antibody, V domains shown)
VH: B1 VH with K38R, R72T, L81M
VL: B1 VL
B6: A217 (antibody, V domains shown)
VH: B1 VH with L81M
VL: B1 VL
B7: A219 (antibody, V domains shown)
VH: B1 VH
VL: B1 VL

Key:
[1] = biological target: T1, recombinant human TL1A protein; experiment: cell-based or functional assay
[2] = biological target: T2, recombinant cynomolgus monkey TL1A …; experiment: cell-based or functional assay
[3] = biological target: T2, recombinant cynomolgus monkey TL1A …; experiment: ELISA on recombinant TL1A protein, antibody titrated, A450 nm read
Description: ELISA for each protein was performed at least three times. The data from a representative experiment are shown and are mean±SD. Abbreviations: A=absorbance, Ab=antibody, Cyno=cynomolgus, nm-nanometer, nM-nanomolar. […] Samples were assayed in triplicate, on two separate occasions. Data presented are the mean TL1A concentrations of three animals per group+SD. Samples collected from animals administered isotype control antibody are shown in circles, samples collected from animals administered anti-TL1A are shown in the triangles and square.

[4] = biological target: T3, TL1A in human blood; experiment: cell-based or functional assay

Binder	IC50 of inhibition of TL1A-induced caspase activation in TF-1 cells [1] [nM]	IC50 of inhibition of TL1A-induced caspase activation in TF-1 cells [2] [nM]	IC50 of inhibition of the IFN-γ response in monkey whole blood stimulated with immune complex, IL-12 and IL-18 [2] [nM]	EC50 (read off the curve) [3] [nM]	% Inhibition at 1 nM Ig; inhibition of interferon gamma release in human blood [4] [%]	% Inhibition at 10 nM Ig; inhibition of interferon gamma release in human blood [4] [%]
B1	0.27	0.59	1.54	~0.4	–	–
B2	–	–	–	–	51.3	72.4
B3	–	–	–	–	46.8	71.2
B4	–	–	–	–	36.9	63.2
B5	–	–	–	–	48.6	69.8
B6	–	–	–	–	46	72.2
B7	–	–	–	–	59.8	75.2
